What was measured:
Treg cells = settings: low doses; cited from earlier work
[1] = tested on: tumor-bearing mouse model; settings: cited from earlier work
[2] = tested on: established orthotropic HCC; settings: mice bearing established orthotropic HCC; cited from earlier work
PBMCs = assay: IFN-γ ELISpot after 2 weeks PBMC culture with single ASPH peptide; format: cell-based, human; settings: 5 healthy blood donors HD #1-5
Protocol: (§1) Epitope-specific T cells were induced according to known methods.^21 Briefly, 2.5×10^5 PBMCs/200 μl X-VIVO 15 medium supplemented with 1 mM L-glutamine, 100 U/ml penicillin, 100 μg/ml streptomycin, and 50 U/ml recombinant human IL-2 (R&D Systems) in round-bottom 96-well plates were cultured for 2 weeks with 10 μg/ml individual peptide. When mature DCs were used as antigen-presenting cells, the T cells were isolated from PBMCs by negative selection using the Pan T Cell Isolation Kit II (Miltenyi Biotec). Regulatory T(reg) cells were removed by the addition of anti-CD25 microbeads (Miltenyi Biotec) where indicated. Treg cell-depleted or non-depleted T lymphocytes (2.4×10^6) were co-cultured for 8 days with 4×10^4 mature DCs loaded with relevant antigen in 24-well plates.^11
Human IFN-γ enzyme-linked immunospot (ELISpot) assays were performed as we described previously using a kit purchased from eBioscience (San Diego, Calif.) to determine T cell immune-reactivity.^21 Cells (5×10^4/well) were added to ELISpot plates (Millipore, Bedford, Mass.) pre-coated with anti-IFN-γ capture antibody and incubated with peptides (10 μg/ml) for 20 hours. […] The plates were developed by adding substrate, 3-amino-9-ethyl carbazole, and the number of spots/well was quantified using a CTL-immunospot S5 UV Analyzer (Cellular Technology Limited, Shaker Heights, Ohio).

PBMCs (CD4+ T cells) = assay: Flow cytometric analysis of peptide-cultured PBMCs (IFN-γ+CD4+, CD154); format: cell-based, human; settings: PBMCs of HD #1
Protocol: FIG. 3A is a histogram, FIGS. 3B and C are bar graphs, and FIG. 3D is a line graph. Characterization of ASPH peptide-specific T cell responses. PBMCs obtained from patient HD #1 were cultured with the ASPH peptides indicated. After 2 weeks incubation, the cells were collected and re-cultured with the corresponding peptides for 20 hours, followed by analyses. p52-reactive PBMCs were stained and the percentage of IFN-γ^+CD4^+ T cells was determined by flow cytometric analysis (FIG. 3A). The percentage of CD154-expressing CD4^+ T cells assessed by flow cytometric analysis was determined as a measure of the response of cells to the ASPH peptide listed in accordance with Table I (FIG. 3B). […] PBMCs cultured 2 weeks with the peptides listed were not treated or pretreated with anti-HLA-A,B,C or anti-HLA-DR for 1 hour; the same corresponding peptide (10 μg/ml) was then added and IFN-γ in the culture supernates collected after 5 days was quantified by ELISA (FIG. 3C). […] PBMCs, cultured 2 weeks with the ASPH peptides listed, were collected and reincubated with increasing concentrations of the same peptide. IFN-γ in the culture supernates collected after 5 days was quantified by standard ELISA. […]

[3] = tested on: pan T cells purified from PBMCs (CD4+ T cells, CD8+ CTLs); assay: T cell activation by co-culture with antigen-loaded monocyte-derived DCs, flow cytometric analysis; format: cell-based, human
Protocol: DCs were generated using known methods.^11,20 Monocytes were isolated from PBMCs using anti-CD14 microbeads (Miltenyi Biotec, Auburn, Calif.) and cultured for 5 days in X-VIVO 15 medium (Lonza, Walkerville, Md.) supplemented with human GM-CSF (R&D Systems, Minneapolis, Minn.) and IL-4 (R&D Systems). ASPH (1 μg/ml) was added on day 5. On the next day, TNF-α (R&D Systems) was added to stimulate DC maturation and the cells were incubated for another 48 hours. DCs incubated with α-fetoprotein (AFP; Zynaxis Cell Science, Malvern, Pa.) or alone served as the control. Mature, epitope-expressing DCs were collected at the end of the incubation period and used in the experiments described.
as §1
Flow cytometric analysis was conducted.^11 Intracellular cytokine staining was performed to evaluate T cell activation. Conjugated mouse monoclonal antibodies specific for the following determinants were used: CD4 (clone OKT4; BioLegend, San Diego, Calif.), CD8a (clone RPA-T8; BioLegend), CD137 (clone 4B4-1; BD Biosciences, San Diego, Calif.), CD154 (clone TRAP1; BD Biosciences), and IFN-γ (clone B27; BD Biosciences). Appropriate isotype controls were included in each analysis.
Experiments were undertaken to determine the capacity of ASPH to activate CD8^+ CTLs, as well as helper CD4^+ T cells, contained in the PBMC populations derived from HCC patients. The experimental procedure for evaluating ASPH-specific T cell activation was optimized using PBMCs derived from a healthy donor.^11 Pan T cells were co-cultured with autologous, ASPH-pulsed DCs; T cells co-incubated with AFP-pulsed or non-pulsed DCs served as controls. After 8 days culture, the T cells were collected and re-incubated with freshly prepared DCs pre-loaded with the same antigen; antigen-specific T cell activation was evaluated by flow cytometric analysis. […] Moreover, they support the premise that immunization with ASPH activates protein-specific CD4^+ and CD8^+ T cells in HCC patients.

[4] = HCC patients #1-5, ASPH-pulsed vs AFP-pulsed or non-pulsed DCs

## O=P1(N(CCCl)CCCl)NCCCO1 (centres unmarked) [cyclophosphamide]
Treg cells
  number and inhibitory activity of Treg cells: decrease the number and inhibitory activity of Treg cells
[1]
  Treg cell function, immune response and tumor eradication: suppressed Treg cell function and augmented the immune response and tumor eradication

## CNC(=O)c1cc(Oc2ccc(NC(=O)Nc3ccc(Cl)c(C(F)(F)F)c3)cc2)ccn1 [sorafenib]
[2]
  Treg cell function and anti-tumor immunity: reduced Treg cell function and enhanced anti-tumor immunity

## QKAKVKKKKPKLLNKF (p322) [ASPH AA 322-337, HLA-DRB1-restricted]
PBMCs
  healthy blood donors for whom the peptide was immunogenic: 5 donors

## TSFFTWFMVIALLGVWTSVA (p52) [ASPH AA 52-71, HLA-DRB1-restricted]
PBMCs (CD4+ T cells)
  peptide-reactive IFN-γ-producing cells that expressed CD4: essentially all

B1: ASPH: Full-length human ASPH recombinant protein produced in a Baculovirus system, loaded on monocyte-derived DCs (protein, listed as Homo sapiens)
chain: MAQRKNAKSSGNSSSSGSGSGSTSAGSSSPGARRETKHGGHKNGRKGGLSGTSFFTWFMVIALLGVWTSVAVVWFDLVDYEEVLGKLGIYDADGDGDFDVDDAKVLLGLKERSTSEPAVPPEEAEPHTEPEEQVPVEAEPQNIEDEAKEQIQSLLHEMVHAEHVEGEDLQQEDGPTGEPQQEDDEFLMATDVDDRFETLEPEVSHEETEHSYHVEETVSQDCNQDMEEMMSEQENPDSSEPVVEDERLHHDTDDVTYQVYEEQAVYEPLENEGIEITEVTAPPEDNPVEDSQVIVEEVSIFPVEEQQEVPPETNRKTDDPEQKAKVKKKKPKLLNKFDKTIKAELDAAEKLRKRGKIEEAVNAFKELVRKYPQSPRARYGKAQCEDDLAEKRRSNEVLRGAIETYQEVASLPDVPADLLKLSLKRRSDRQQFLGHMRGSLLTLQRLVQLFPNDTSLKNDLGVGYLLIGDNDNAKKVYEEVLSVTPNDGFAKVHYGFILKAQNKIAESIPYLKEGIESGDPGTDDGRFYFHLGDAMQRVGNKEAYKWYELGHKRGHFASVWQRSLYNVNGLKAQPWWTPKETGYTELVKSLERNWKLIRDEGLAVMDKAKGLFLPEDENLREKGDWSQFTLWQQGRRNENACKGAPKTCTLLEKFPETTGCRRGQIKYSIMHPGTHVWPHTGPTNCRLRMHLGLVIPKEGCKIRCANETRTWEEGKVLIFDDSFEHEVWQDASSFRLIFIVDVWHPELTPQQRRSLPAI
[3]; HCC patients #1-5
  CD4+ T cells expressing both IFN-γ and CD154: expanded significantly
[3]; [4]
  CD4+CD154+ and CD4+IFN-γ+ T cells: significant increases
  percentage of CD8+ CTLs expressing CD137 and IFN-γ: significantly higher
[3]; HCC patients, FIGS. 1B and 1D, p<0.05
  percentages of responsive cells vs AFP sample or antigen control: significantly greater
[3]; anti-CD25 microbeads prior to co-culture
  ASPH-specific T cell activation after Treg cell depletion: enhanced
[3]; healthy donor HD #1, ASPH-pulsed DCs compared to AFP or no antigen
  activation of both CD4+ T cells and CTLs: significant increases
